{
  "source": "paper PMC9953421",
  "about": "“Regulation of CRISPR-Associated Genes by Rv1776c (CasR) in Mycobacterium tuberculosis”",
  "binders": {"B1": {"name": "casRp4 (dsDNA)", "DNA 1": "AATAGCGCCCCGTTGTTAGACTAGATGA", "DNA 2": "TCATCTAGTCTAACAACGGGGCGCTATT"}, "B2": {"name": "csm6p2 (dsDNA)", "DNA 1": "CGATCAGGAAAACAATTAGACGCAGGGGC", "DNA 2": "GCCCCTGCGTCTAATTGTTTTCCTGATCG"}},
  "target": "T1, CasR (Rv1776c) (UniProt O33179 1-186)",
  "T1 sequence": "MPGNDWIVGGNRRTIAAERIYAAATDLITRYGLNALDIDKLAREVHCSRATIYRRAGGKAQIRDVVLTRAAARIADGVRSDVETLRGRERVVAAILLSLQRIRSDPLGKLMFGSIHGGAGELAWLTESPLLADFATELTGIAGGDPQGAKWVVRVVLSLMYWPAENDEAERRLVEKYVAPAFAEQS",
  "assay": "EMSA; 0-2 uM protein",
  "details": "protein: recombinant; tags: N-terminal His (pET28a); chain copies: 2",
  "data": [
    {"binder": "B1", "values": [
      {"measurement": "binding result", "value": "no binding"}
    ]},
    {"binder": "B2", "values": [
      {"measurement": "binding result", "value": "no binding"}
    ]}
  ]
}
